The results in this text go back to patent publication US20220064335A1 (CRISPR THERAPEUTICS, published 2022).

Test [1] has as its target T1, anti-CD70 CAR (SEQ ID NO: 7) on CAR T cells.
T1 construct: also called anti-CD70 CAR T cells
As to the kind of experiment: flow cytometry, % CAR positive cells against antibody dilution on anti-CD70 CAR T cells. The method, then: (§1) The purified 15C04-02F03 antibody was analyzed by flow cytometry for binding to CAR T cells expressing the anti-BCMA CAR of SEQ ID NO: 6 (anti-BCMA CAR T cells). CAR T cells expressing an anti-CD70 CAR of SEQ ID NO: 7 (anti-CD70 CAR T cells) or an anti-CD19 CAR SEQ ID NO: 8 (anti-CD19 CAR T cells) were used as negative controls. Anti-BCMA-scFv antibody (15C04-02F03) was analyzed at various dilutions (FIG. 2).

For test [2], the target named is T2, anti-CD19 CAR (SEQ ID NO: 8) on CAR T cells.
T2 construct: also called anti-CD19 CAR T cells
Put plainly: flow cytometry, % CAR positive cells against antibody dilution on anti-CD19 CAR T cells. The method, then: as §1

T1 sequence (chain, as listed by the source limits assumed): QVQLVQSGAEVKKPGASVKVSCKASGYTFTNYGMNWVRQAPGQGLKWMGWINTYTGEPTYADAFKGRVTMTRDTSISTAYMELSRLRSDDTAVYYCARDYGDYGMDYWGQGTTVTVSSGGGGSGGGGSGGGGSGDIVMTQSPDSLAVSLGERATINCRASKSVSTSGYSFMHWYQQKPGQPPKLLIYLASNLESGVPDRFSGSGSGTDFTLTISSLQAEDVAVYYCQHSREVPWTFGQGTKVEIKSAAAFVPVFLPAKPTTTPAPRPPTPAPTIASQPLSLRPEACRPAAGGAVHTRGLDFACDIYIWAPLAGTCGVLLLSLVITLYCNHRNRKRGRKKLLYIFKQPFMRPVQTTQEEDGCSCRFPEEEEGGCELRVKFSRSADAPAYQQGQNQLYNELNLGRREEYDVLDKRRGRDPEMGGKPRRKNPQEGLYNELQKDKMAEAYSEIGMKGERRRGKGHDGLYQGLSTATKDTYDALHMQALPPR

B1: mouse anti-BCMA-scFv monoclonal antibody 15C04-02F03 (antibody, mouse IgG1, kappa, V domains shown)
VH: QVQLQQPGAELVKPGTSVKLSCKASAYTFTNYWIHWVKQRPGQGLEWIGRIDPNSGDTKYNEKFKSKASLTVDKPSSTANMQLSSLTSEDSAVYYCTRWGDLHYYAMDYWGQGTSVTVSS
VL: DIVLTQSPASLAVSLGQRATISCQASESVSFTGTSLMHWYQQKPGQPPKLLIYRASNLDSGVPARFSGSGSESDFTLTIDPVEEDDAAVYYCMQSMEDPYTFGGGTKLEIKR
notes: also called Native 15C04-02F03; anti-BCMA-scFv-AJ-1.3-15C04-02F03
Regarding B1, the binding result in test [1] and in test [2] was “no binding” each time.
